According to paper PMC11488100, “PET imaging of CXCR4 expression using [^18F]AlF-NOTA-QHY-04 for hematologic malignancy and solid tumors” (Theranostics, 2024):
Bridge positions count the residues as written; N and C are the ends. Square brackets hold non-standard residues; d marks the D form. Peptide text beside a SMILES is read from it. * marks the point of attachment. NOTA = O=C(O)CN1CCN(CC(=O)O)CCN(CC(=O)*)CC1; 2Nal = N[C@@H](Cc1ccc2ccccc2c1)C(=O)O; Pen = CC(C)(S)[C@H](N)C(=O)O; 4Amb = NCc1ccc(C(=O)O)cc1; Ahx = NCCCCCC(=O)O

Legend:
CXCR4 expression = biological target: T1, CXCR4 expression (Homo sapiens, UniProt P61073); settings: in vivo
T1 construct: from tissue; host or cells: tumour lesions in cancer patients (DLBCL, SCLC, NSCLC, TNBC, pancreatic carcinoma, glioma, HCC, CRC), in vivo
Text: Potential eligible patients with newly diagnosed tumor were recruited from Shandong Cancer Hospital and institute from November 2022 to December 2023. A total of 55 patients including 8 tumor types were represented in this study (diffuse large B-cell lymphoma (DLBCL), n = 6; SCLC, n = 30; non-small cell lung cancer (NSCLC), n = 4; triple-negative breast cancer (TNBC), n = 3; pancreatic carcinoma, n = 3; glioma, n = 7; hepatocellular carcinoma (HCC), n = 1; and colorectal carcinoma (CRC), n = 1). The [^18F]AlF-NOTA-QHY-04 imaging study in patients was approved by the Institutional Review Board of Shandong Cancer Hospital and Institute (no. SDZLEC2023-256-02), and the patients provided their informed consent before inclusion in this study. In this prospective observational study, [^18F]AlF-NOTA-QHY-04 PET/CT scans should not affect the normal process of routine examinations and treatment as usual. Patients were enrolled according to the following criteria: (1) newly diagnosed cancer patients with visible tumors on conventional imaging; (2) histopathologically confirmed diagnosis; (3) age ≥ 18 years; (4) Eastern Cooperative Oncology Group (ECOG) performance status score of 0-2; (5) no prior cancer-directed therapy; (6) ability to undergo [^18F]AlF-NOTA-QHY-04 PET/CT scanning before treatment initiation. Specifically, regarding histological confirmation, we followed the standard clinical practice guidelines for each type of cancer [21]-[26], and provided detailed descriptions of our approach for obtaining histological evidence in the supplemental materials. […]
NaOH. Finally, the cell lysates were collected and measured by an automatic gamma counter (2470 Wizard2, PerkinElmer). […]
The tumor-bearing mice were injected with 3.70 ± 0.74 MBq of [18F]AlF-NOTA-QHY-04 in about 150 μL saline via the tail vein. […] The PET/CT images were analyzed using OsiriX MD software (Pixmeo SARL, Geneva, Switzerland), and the regions of interest (ROIs) were drawn along the boundary covering the whole tumor volume for quantification of the radioactivity (expressed as %ID/mL). […]

[1] = type: physicochemical; settings: pH 7.4
Description: Synthesis of [18F]AlF-NOTA-QHY-04
Briefly, NOTA-QHY-04 was radiolabeled with [18F]F-, following procedures. 10-20
GBq [18F]F− produced by medical cyclotron (MINITRACE Cyclotron, GE, USA) was
captured with a QMA SepPak light cartridge (Waters Corporation, USA) and then eluted
with 300-500 μL saline (0.9% NaCl). Then, the saline containing [18F]F− was added to
reaction vial, followed by 6-12 μL AlCl3 (10 mM in 0.1M sodium acetate buffer, pH 4),
200 μL acetonitrile (≥ 99.9%, Sigma-Aldrich, USA), and 20-30 μL of NOTA-QHY-04
(20 mg/mL in metal-free water). The vial was heated for 10 min at 110°C. After cooling,
the reaction system was diluted with 10 mL of water and was transferred to a Qasis light
HLB cartridge (Waters Corporation, USA). The cartridge was then washed with 10 mL of
water to remove the free [18F]F−. Finally, the desired product was eluted and collected
with 0.6 mL of ethanol. The product was reconstituted in saline and passed through a 0.22
μm syringe filter (Pall Corporation, USA) into a sterile vial.
Octanol-water partition coefficient (logD)
The partition coefficient (logD) of [18F]AlF-NOTA-QHY-04 was determined in a […]
from each phase were measured for radioactivity using a γ-counter. […]
repeated three times to ensure the accuracy of the results. The logD was calculated by
dividing the average radioactivity in the 1 -octanol layer by that in the PBS layer, and the […]

T1 sequence (P61073 whole entry): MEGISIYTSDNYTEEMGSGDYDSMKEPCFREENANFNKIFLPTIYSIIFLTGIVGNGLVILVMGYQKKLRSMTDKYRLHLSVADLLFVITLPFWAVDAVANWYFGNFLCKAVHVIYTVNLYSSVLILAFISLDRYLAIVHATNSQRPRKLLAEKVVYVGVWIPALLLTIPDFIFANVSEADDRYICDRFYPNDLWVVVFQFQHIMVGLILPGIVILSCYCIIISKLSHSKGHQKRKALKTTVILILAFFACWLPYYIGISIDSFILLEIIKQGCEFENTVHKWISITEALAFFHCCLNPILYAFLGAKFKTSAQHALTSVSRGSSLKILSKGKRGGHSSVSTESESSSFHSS

SMILES: C[C@H](NC(=O)[C@H](CCCNC(=N)N)NC(=O)CCCCCNC(=O)c1ccc(CNC(=O)CN2CCN(CC(=O)O)CCN(CC(=O)O)CC2)cc1)C(=O)N[C@@H]1CSSC(C)(C)[C@@H](C(=O)O)NC(=O)[C@H](Cc2c[nH]cn2)NC(=O)[C@H](Cc2ccc3ccccc3c2)NC(=O)[C@H](CCCNC(=N)N)NC1=O [[^18F]AlF-NOTA-QHY-04] ({NOTA-4Amb-Ahx}-RA[dC]R[2Nal]H[Pen]-OH; disulfide 3-7)
- SUVmean (CXCR4 expression): 7.52 ± 3.01
- average SUVmax (CXCR4 expression): 6.29 ± 2.85
- average T/N (tumor-to-normal brain ratio) (CXCR4 expression): 62.55 ± 43.24
- logD [1]: -2.21 ± 0.06
